Measured values taken from patent US11591580B2, “K85 mutation-containing plant EPSPS mutant, and encoding gene and application thereof” (GEVOTO LLC, priority 2017, dated 2023).

B1: Z1: maize EPSPS mutant I, SEQ ID NO: 12, containing only a single mutation K94(85)I (protein)
chain: MAVQAGAEEIVLQPIKEISGTVKLPGSKSLSNRILLLAALSEGTTVVDNLLNSEDVHYMLGALRTLGLSVEADKAAKRAVVVGCGGKFPVEDSIEEVQLFLGNAGTAMRPLTAAVTAAGGNATYVLDGVPRMRERPIGDLVVGLKQLGADVDCFLGTDCPPVRVNGIGGLPGGKVKLSGSISSQYLSALLMAAPLALGDVEIEIIDKLISIPYVEMTLRLMERFGVKAEHSDSWDRFYIKGGQKYKSPKNAYVEGDASSASYFLAGAAITGGTVTVEGCGTTSLQGDVKFAEVLEMMGAKVTWTETSVTVTGPPREPFGRKHLKAIDVNMNKMPDVAMTLAVVALFADGPTAIRDVASWRVKETERMVAIRTELTKLGASVEEGPDYCIITPPEKLNVTAIDTYDDHRMAMAFSLAACAEVPVTIRDPGCTRKTFPDYFDVLSTFVKN
modifications: Zea mays EPSPS mutant with mutation K94(85)I
B2: Z0: wild-type maize EPSPS represented by SEQ ID NO: 10; control group of Example 6 (protein)
chain: MAVQAGAEEIVLQPIKEISGTVKLPGSKSLSNRILLLAALSEGTTVVDNLLNSEDVHYMLGALRTLGLSVEADKAAKRAVVVGCGGKFPVEDSKEEVQLFLGNAGTAMRPLTAAVTAAGGNATYVLDGVPRMRERPIGDLVVGLKQLGADVDCFLGTDCPPVRVNGIGGLPGGKVKLSGSISSQYLSALLMAAPLALGDVEIEIIDKLISIPYVEMTLRLMERFGVKAEHSDSWDRFYIKGGQKYKSPKNAYVEGDASSASYFLAGAAITGGTVTVEGCGTTSLQGDVKFAEVLEMMGAKVTWTETSVTVTGPPREPFGRKHLKAIDVNMNKMPDVAMTLAVVALFADGPTAIRDVASWRVKETERMVAIRTELTKLGASVEEGPDYCIITPPEKLNVTAIDTYDDHRMAMAFSLAACAEVPVTIRDPGCTRKTFPDYFDVLSTFVKN
modifications: Zea mays

Experiments:
[1] = system: transgenic rice seedlings; assay: glyphosate resistance of the EPSPS mutant in transgenic rice plants sprayed with glyphosate (Example 8, Table 1); type: in vivo, rice (Nipponbare); settings: for survival of transformed rice seedlings (in words): 2× and 5× glyphosate dosages; for glyphosate resistance of transformed rice seedlings (in words): glyphosate sprayed at the 1× dosage
[2] = system: double knockout E. coli; assay: growth of E. coli transformed by genes encoding maize EPSPS (wild type and mutants) in culture media containing different glyphosate concentrations (Example 6, FIG. 2); type: cell-based
Excerpt: E. coli transformed by the gene (SEQ ID NO: 9, which encoded the wild-type maize EPSPS represented by SEQ ID NO: 10) encoding the wild-type maize EPSPS was taken as a control group.
E. coli transformed by the gene (SEQ ID NO: 11, which encoded SEQ ID NO: 12) encoding the maize EPSPS mutant I that contained only a single mutation K94(85)I, was taken as Experiment Group 1.
E. coli transformed by the gene (with a nucleotide sequence represented by SEQ ID NO: 13, and the amino acid sequence of the encoded three-mutation maize EPSPS mutant is represented by SEQ ID NO: 14) encoding the maize EPSPS mutant that contained only three mutations G105(96)A, P110(101)S and K207(194)R but no mutation K94(85)I, was taken as Experiment Group 2.
E. coli transformed by the gene (SEQ ID NO: 15) encoding the maize EPSPS mutant (containing four mutations: K94(85)I, G105(96)A, P110(101)S and K207(194)R) provided in Example 3 was taken as Experiment Group 3.
The glyphosate resistance of the gene encoding the maize EPSPS mutant and the maize EPSPS mutant encoded thereby in the E. coli was verified by detecting the growth situation of the transformed E. coli in culture media containing different glyphosate concentrations (0, 1, 20, 50 mM). In the above, the E. coli used is double knockout E. coli.
Results are as shown in FIG. 2 (wherein Z0 represents a control group, Z1 represents Experiment Group 1, Z2 represents Experiment Group 2, and Z3 represents Experiment Group 3).

[3] = 1X dosage (1060 g/hectare glyphosate), recorded on 10th day
[4] = 2X dosage (2120 g/hectare) sprayed to plants surviving 1X, recorded 10 days later
[5] = 5X dosage (5300 g/hectare) sprayed to plants surviving 2X, recorded 10 days later
[6] = 20X dosage (21200 g/hectare) sprayed to plants surviving 5X, recorded 10 days later
[7] = culture media containing 1 mM glyphosate

Molecule	% ++&+++ (percentage of plant having medium and high glyphosate resistance to the total number of plants observed) [1, 3] [%]	number of plants with resistance + (low glyphosate resistance) [1, 3]	number of plants with resistance ++ (medium glyphosate resistance) [1, 3]	number of plants with resistance +++ (high glyphosate resistance) [1, 3]	number of plants with resistance − (no glyphosate resistance) [1, 3]	% ++&+++ (percentage of plant having medium and high glyphosate resistance to the total number of plants observed) [1, 4] [%]	number of plants with resistance + (low glyphosate resistance) [1, 4]	number of plants with resistance ++ (medium glyphosate resistance) [1, 4]	number of plants with resistance +++ (high glyphosate resistance) [1, 4]	number of plants with resistance − (no glyphosate resistance) [1, 4]	survival of transformed rice seedlings (in words) [1]	% ++&+++ (percentage of plant having medium and high glyphosate resistance to the total number of plants observed) [1, 5] [%]	number of plants with resistance + (low glyphosate resistance) [1, 5]	number of plants with resistance ++ (medium glyphosate resistance) [1, 5]	number of plants with resistance +++ (high glyphosate resistance) [1, 5]	number of plants with resistance − (no glyphosate resistance) [1, 5]	% ++&+++ (percentage of plant having medium and high glyphosate resistance to the total number of plants observed) [1, 6] [%]	number of plants with resistance + (low glyphosate resistance) [1, 6]	number of plants with resistance ++ (medium glyphosate resistance) [1, 6]	number of plants with resistance +++ (high glyphosate resistance) [1, 6]	also measured
B1	10.5	1	2	0	16	0.0	3	0	0	16	some of the rice seedlings transformed by the maize EPSPS mutant Z1 survived	0.0	2	0	0	17	0.0	0	0	0	number of plants with resistance − (no glyphosate resistance) [1, 6]: 19; glyphosate resistance of transformed rice seedlings (in words) [1]: obviously superior to that of Z0; growth of transformed E. coli ([2]; culture media containing 0 mM glyphosate and 1 mM glyphosate): obviously superior to that of control group (Z0); growth of transformed E. coli [2, 7]: obviously superior to that of the control group (Z0)
B2	0.0	4	0	0	16	0.0	0	0	0	20	no rice transformed by the wild-type maize EPSPS Z0 survived	0.0	0	0	0	20	0.0	0	0	0	number of plants with resistance − (no glyphosate resistance) [1, 6]: 20; glyphosate resistance of transformed rice seedlings (in words) [1]: no plant having medium or high glyphosate resistance; growth of transformed E. coli [2, 7]: weak
